The nature of the data set: yeast display, Sf9 membrane polyspecificity reagent, FACS + sequencing; frameworks hold sequencing errors. The gist of the method: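 A nanobody's polyreactivity label depends on the gate it was sorted from. Yeast display cells were stained with 10% biotinylated, detergent-solubilized Sf9 membrane reagent for 1 hour at 4 °C, enriched on streptavidin microbeads and sorted by FACS. The low and high (top ~1%) gates were set on anti-HA fluorescence for expression and streptavidin fluorescence for reagent binding.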
Consider “QVQLVESGGGLVQAGGSLRLSCAASGRIFDYYAMGWYRQAPGKERELVARISIGGSTYADSVKGRFTISRDNAKNTVYLQMNSLKPEDSAVDYCADSTIRLVGYRTYWGPRYDYWGQGTQVTVSS”, for which the “polyreactivity (PSR sort gate)” value is reported as “low polyreactivity”. As to “QVQLVESGGGLVQAGGSLRLSCAASGRIFDYYAMGWYRQAPGKERELVARITSGGTTNYADSVKGRFTISRDNAKNPVYLQMNSLKPEDTAVYYCAADVYGTVRRVGWYYVGEGYDYWGQGTQVTVSS”, the “polyreactivity (PSR sort gate)” value was “low polyreactivity”. Take “QVQLVESGGGLVQAGGSLRLSCAASGRIFEDNGMGWYRQAPGKEREFVATISWDGDRTYYADSVKGRFTISRDNAKNTVYFQMNSLKPEDTAVYYCNADLPLWPFRGYEYWGQGTQVTVSS”: the “polyreactivity (PSR sort gate)” value is listed as “low polyreactivity”. For “QVQLVESGGGLVQAGGSLRLSCAASGRIFEDYMVWYRHAPGKDRELVAAIRWSGGGTYYADSVKGRFTISRDNAKNTVYLQMTSLKPEDTAVYYCATPGTGSVEVYGYWGQGTQVTVSS” the value was “low polyreactivity”; for “QVQLVESGGGLVQAGGSLRLSCAASGRIFEGYAMGWYRPAPGKQRELVAAISKSGGRTNYADSVKGRFTISRDNAKNTVYLQMNSLKPEDSAVYYCNAGIKYWGSDFFYWGQVTQVTVSS”, “high polyreactivity”; for “QVQLVESGGGLVQAGGSLRLSCAASGRIFEHNAMGWSRQAPGKEMEFVAAISSSGGSTYYADSVKGRFTISRDNAKNTVYLQMNSLKPEDTAVYYCNAGSTYYERNYWGQGTQVTVSS”, “low polyreactivity”.

With “QVQLVESGGGLVQAGGSLRLSCAASGRIFEINAMGWYRQAPGKERELVAAITRSGGSTYYADSVKGRFTISRDNAKNTVYLQMNSLKPEDTAVYYCAARGRYWYSRYYSWGQGTQVTVSS”, the “polyreactivity (PSR sort gate)” value is listed as “high polyreactivity”. The same measure for “QVQLVESGGGLVQAGGSLRLSCAASGRIFEPYTMGWYRQAPGKEREFVATITASGDSTYYADSVKGRFTISRDNAKNTVFLQMNSLKPEDTAVYYCAAAPFGGYEYDYWGQGTQVTVSS”: “high polyreactivity”. The same measure for “QVQLVESGGGLVQAGGSLRLSCAASGRIFERNAMGWYRQAPGKERELVAAITYNGGRTYYAVSVKGRFTISRDNAKNTVYLQINSQKPEDTAVYYYNAQSRVTRSSYRGSPRYDYWGQGTQVTVSS”: “high polyreactivity”; for “QVQLVESGGGLVQAGGSLRLSCAASGRIFERYAMGWYRQAPGKERELVAAISYRGGRTYYADSVKGRFTISRDNAKNTVYLQMNSLKPEDTAVYYCAAVEVRRVADYGFGLLDYWGQGSQVTVSS”: “high polyreactivity”; for “QVQLVESGGGLVQAGGSLRLSCAASGRIFEVYVMGWYRQAPGKERELVAAITTSGGSTYYADSVKGRFTISRDNAKNTVYLQMNSLKPEDTAVYYCNRYWHLAGSWGQGTQVTVSS”: “low polyreactivity”. The same measure for “QVQLVESGGGLVQAGGSLRLSCAASGRIFEYYAMGWYRQAPGKERELVAAINSSGGSTYYADSVKGRFTISRDNAKNTVYLQMNSLKPEDTAVYYCAARSYASPGWRYEYWGQGTQVTVSS”: “low polyreactivity”.

Regarding “QVQLVESGGGLVQAGGSLRLSCAASGRIFFDYAMGWYRQAPGKERELVADIDWSGGITYYADSVKGRFTISRDNAKNTVYLQMNSLIPEDTAVYYCAADFDELYPTTAYGEFEYWGQGTQVTVSS”, the “polyreactivity (PSR sort gate)” value is recorded as “high polyreactivity”. The same measure for “QVQLVESGGGLVQAGGSLRLSCAASGRIFFDYAMGWYRQAPGKERELVADISYNGGSTNYADSVKGRFTISRDNAKNTLYLQMNSLKPEDTADYYCNRAFVPVYDLDYYWGQGTQVTVSS”: “low polyreactivity”. On to “QVQLVESGGGLVQAGGSLRLSCAASGRIFFGYAMGWYRQAPGKERELVAAITRRGTITHYADSVKGRFTISRDNAKNTVYLQMNSLKPEDTAVYYCNTVYARYSTAPGYNYWGQGTQVTVSS”, for which the “polyreactivity (PSR sort gate)” value is listed as “high polyreactivity”. In the case of “QVQLVESGGGLVQAGGSLRLSCAASGRIFFIYAMGWYRQAPGKERELVAGINRTGGSTYYADSVKGRFTISRDNAKNTVYLQMNSLKPEDTAVYYCAAVSYYASDYRYDYWGQGTQVTVSS”, the “polyreactivity (PSR sort gate)” value is reported as “low polyreactivity”. For “QVQLVESGGGLVQAGGSLRLSCAASGRIFFLYAMGWYRQAPGKERELVAAITWSADGTYYADSVKGRFTISRDNAKNTVYLQMNSLKPEDTAVYYCNADAYTTASSYNWWYYYWGQGTQVTVSS” the value was “low polyreactivity”; for “QVQLVESGGGLVQAGGSLRLSCAASGRIFFNYAMGWYRQAPGKVRELVASITWRGGNTYYADSVKGRFTISRDNAKNTVYLQMNSLKPEDTAVYYCAASIRRAGRTYYYWGQGTQVTVSS”, “high polyreactivity”; for “QVQLVESGGGLVQAGGSLRLSCAASGRIFFPYYTMGWYRQAPGKERELVAVISSSGSSTYYADSVKGRFTISRDNAKNTVYLQMNSLKPEDTAVYFCNAYGGVSTRLRGDYWGQGTQVTVSS”, “high polyreactivity”. Regarding “QVQLVESGGGLVQAGGSLRLSCAASGRIFFRYAMGWYRQAPGKEREFVAAISCTGGSTYYADSVKGRFTISRDNAKNTVYLQMNSLKPEDTAVYYCAASVVSRPTYYAYYYWGQGTQVTVSS”, the “polyreactivity (PSR sort gate)” value is on record as “high polyreactivity”.

“QVQLVESGGGLVQAGGSLRLSCAASGRIFFSYDMGWYTQAPGKERELVAAIDYIAGNTYYADSVKGRFTISRDNAKNTVYLQMNSLKPEDTAVYYCAADVLDWYDLLRDDYWGQGTQVTVSS”: the “polyreactivity (PSR sort gate)” value is reported as “low polyreactivity”. The same measure for “QVQLVESGGGLVQAGGSLRLSCAASGRIFFTNAMGWYRQAPGKERELGAAIRFSGGRTYYADSVKGRFTISGDNAKNTVYLQMNSLKPEDTAVYYCAADPPRTRYRNARFDYWGQGTQVTVSS”: “high polyreactivity”; for “QVQLVESGGGLVQAGGSLRLSCAASGRIFFTNAMGWYRQAPGKERELVAAIRSSGGRTYYADSVKGRFTISRDNAKNTVYLQMNSLKPEDTAVYYCNVVDGRHISHYNYWGQGTQVTVSS”: “high polyreactivity”. For “QVQLVESGGGLVQAGGSLRLSCAASGRIFFTNAMGWYRQAPGKERELVAAITSTGSRTYYADSVKGRFTISRDNAKNTVYLQMNSLKPEDTAVYYCNRVSHLDYYWGQGTQVTVSS” the value was “high polyreactivity”. The same measure for “QVQLVESGGGLVQAGGSLRLSCAASGRIFFTNAMGWYRQAPGKETELVASIDDTGSTNYADSVKGRFTISRDNAKNTVYLQMNSLKPEDTAVYYCNGVYYSYRYGHDYWGQGTQVTVSS”: “low polyreactivity”. For the sequence “QVQLVESGGGLVQAGGSLRLSCAASGRIFFTNDMGWYRQAPGKERELVATITGNGASTFYADSVKGRFTISRDNAKNTVYLQMNSLKPEDSAVYYCNADRSSYPRYDYWGQGTLVTVSS”, the “polyreactivity (PSR sort gate)” value is recorded as “low polyreactivity”. For “QVQLVESGGGLVQAGGSLRLSCAASGRIFFTYVMGWYRQAPGKEREFVAAITFSDGTTYYADSVKGRFTISRDNAKNTVYLQMNSLKPEDTAVYYCNTDSFYGFVYPWTISSEVDYWGQGTQVTVSS” the value was “low polyreactivity”; for “QVQLVESGGGLVQAGGSLRLSCAASGRIFFVNAMGWYRQAPGKERELVAAISRGGSTNYADSVKGRFTISRDNAKNTVYLQMNSLKPEDTAVFYCNADGSSYWYPVPLDGGDYWGQGTQVTVSS”, “low polyreactivity”.

For “QVQLVESGGGLVQAGGSLRLSCAASGRIFFYNDMGWYRQAPGKERELVASISSGTSTYYADSVKGRFTISRDNAKNTVYLQMNSLKPEDTAVYYCATGRPWHYSSATYDYWGQGTQVSVSS”, the “polyreactivity (PSR sort gate)” value was “low polyreactivity”.

For the sequence “QVQLVESGGGLVQAGGSLRLSCAASGRIFGANAMGWYRQAPGKERELVATITYGGTSTYYADSVKGRFTISRDNGKNTVYLQMNSLKPEDTAVSYCAADGYSVFAAILGEYFDSDYWGQGTQVTVSS”, the “polyreactivity (PSR sort gate)” value is reported as “low polyreactivity”. Take “QVQLVESGGGLVQAGGSLRLSCAASGRIFGANAMGWYRQAPGKERELVAVITGGGGTYYADSVKGRFTISRDNAKNTVYLQMNRLKPEETAVYYCDWPRYYYTYPSHPMDYWGQGTQVTVSS”: the “polyreactivity (PSR sort gate)” value is given as “low polyreactivity”. For “QVQLVESGGGLVQAGGSLRLSCAASGRIFGANARGWYRQAPGKERELVATITYGGTSTYYADSVKGRFTISRDNAKNTVYLQMNSLKPEDTAVYYCAADGYSVFAAILGEYFDYDYWGQGTQVTVSS”, the “polyreactivity (PSR sort gate)” value was “low polyreactivity”. The same measure for “QVQLVESGGGLVQAGGSLRLSCAASGRIFGAYAMGSYRQAPGKERELVAAIDIRGGKTYYADSVKGRFTISRDYSKNSVYLQMNSMKPEDTAVYYCAADTWYDAYNYWGQGTQVTVSS”: “low polyreactivity”; for “QVQLVESGGGLVQAGGSLRLSCAASGRIFGAYAMGWYRQAPGKERELVAAITSGGSTYADSVKGRFTISRDNAKNTVYLQMNSLKPEDTAVYYCAADLITRSDSWWTGWIWEYDYWGQGTQVTVSS”: “low polyreactivity”. The same measure for “QVQLVESGGGLVQAGGSLRLSCAASGRIFGAYAMGWYRQAPGKERELVADIRSTGSTNYADSVKGRFTISRDNAKNTVYLQMNSLKPEDTAVYYCAARWRSRRFGSGFEYWGQGTQVTVSS”: “high polyreactivity”; for “QVQLVESGGGLVQAGGSLRLSCAASGRIFGCYSMGWYRPAPGKEREEVAAITWSGTSTYYADSVKGRFTISRENAKNTVYLQMNSLQPEDTAVYYCAADSLSGSAPTYYSTLEYWGQGTQVTVSS”: “low polyreactivity”. The same measure for “QVQLVESGGGLVQAGGSLRLSCAASGRIFGDNAMGWYRQAPGKEREFVATINGSGGSTYYADSVKGRFTISRDNAKNTVYLQMNSLKPEDTAVYYCFVQQNYGYDYWGQGTQVTVSS”: “low polyreactivity”. “QVQLVESGGGLVQAGGSLRLSCAASGRIFGDNTMGWYRQAPGKERELVAAISFTGGSTYYADSVKGRFSISRDNAKNTVYLQMNSLKPEDTAVYYCNADWVSTWGYDYWGQGTQVTVSS”: the “polyreactivity (PSR sort gate)” value was “low polyreactivity”. In the case of “QVQLVESGGGLVQAGGSLRLSCAASGRIFGDYAMGWYRQAPGKERELVAAISYSGGSTYYADSVKGRFTISRDNAKNTVYLQMNSLKPEDTAVYYCNKRWYTYGRYGVQGYDYWGQGTQVTVSS”, the “polyreactivity (PSR sort gate)” value is “high polyreactivity”. The same measure for “QVQLVESGGGLVQAGGSLRLSCAASGRIFGEYAMGWYRQAPGKERELVAAITSSTGSTYYADSVKGRFTISRDNAKNTVYLQMNSLKPEDTAVYYCAAADLKYASYWYDYWGQGTQVTVSS”: “low polyreactivity”.

The values above are taken from the nanobody polyreactivity screen of Harvey et al. (2022).
